Data taken from publication PMC12583513, “Deciphering the molecular mechanism of the bacterial division motor TolQRA” (Cell Discovery, 2025).
“And” between values parts separate entries of the source, which are not always exact repeats. Equal entries are not always repeated.

T1: TolA (residues 34–421) (Escherichia coli K12, UniProt P19934 34-421, RED-tris-NTA dye on the His tag)
T1 construct: TolA of Escherichia coli K12, residues 34-421, amplified from genomic DNA into a modified pET28a; also called soluble TolA; TolA with the periplasmic loop TolA_β; source: E. coli BL21(DE3), purified (Ni-NTA column, desalting); not shown: 8x His, C-terminal, kept
T1 sequence (looked up): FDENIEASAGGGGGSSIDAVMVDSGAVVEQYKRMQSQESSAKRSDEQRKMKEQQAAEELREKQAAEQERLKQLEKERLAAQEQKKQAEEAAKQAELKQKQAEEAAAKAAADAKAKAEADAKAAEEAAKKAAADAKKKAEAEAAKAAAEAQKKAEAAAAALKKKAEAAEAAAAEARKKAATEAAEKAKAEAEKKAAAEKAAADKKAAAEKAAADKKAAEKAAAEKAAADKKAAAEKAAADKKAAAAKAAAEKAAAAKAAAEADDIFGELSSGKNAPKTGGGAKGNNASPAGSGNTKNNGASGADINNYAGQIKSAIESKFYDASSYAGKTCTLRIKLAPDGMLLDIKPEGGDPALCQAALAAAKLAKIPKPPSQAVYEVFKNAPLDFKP

T2: TolA (residues 58–421) (Escherichia coli K12, UniProt P19934 58-421, RED-tris-NTA dye on the His tag)
T2 construct: TolA of Escherichia coli K12, residues 58-421, amplified from genomic DNA into a modified pET28a; also called soluble TolA without TolA_β; source: E. coli BL21(DE3), purified (Ni-NTA column, desalting); not shown: 8x His, C-terminal, kept
T2 sequence (looked up): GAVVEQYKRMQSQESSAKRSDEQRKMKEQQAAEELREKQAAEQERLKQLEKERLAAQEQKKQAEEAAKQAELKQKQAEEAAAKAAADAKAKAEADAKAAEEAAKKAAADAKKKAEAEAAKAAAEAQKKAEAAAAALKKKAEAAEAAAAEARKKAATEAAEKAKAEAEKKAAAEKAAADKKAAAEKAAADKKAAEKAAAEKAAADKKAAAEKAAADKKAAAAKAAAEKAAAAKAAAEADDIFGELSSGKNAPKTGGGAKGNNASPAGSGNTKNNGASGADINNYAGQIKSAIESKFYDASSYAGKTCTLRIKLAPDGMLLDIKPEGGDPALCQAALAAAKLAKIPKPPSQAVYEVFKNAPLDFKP


Assays:
[1] = biological target: the molecule itself; experiment: cryo-EM structure; TolQRA co-expressed, purified by the His tag of TolA in DDM/CHS then LMNG/CHS, reconstituted in MSP1D1 nanodiscs with E. coli total lipid extract; 20 mM Tris pH 7.8, 150 mM NaCl; classes with one, two or three TolA
TolA (residues 34–421) = biological target: T1, TolA (residues 34–421); experiment: MST; TolA labelled with RED-tris-NTA dye, fixed at 50 nM; TolR titrated in 16 points from 150 μM to 4.58 nM; 20 mM HEPES pH 7.8, 150 mM NaCl; 25 °C; Monolith NT.115; settings: both partners purified
TolA (residues 58–421) = biological target: T2, TolA (residues 58–421); experiment: as above; settings: both partners purified

Binder | stoichiometry N [1] | binding result (TolA (residues 34–421)) | binding result (TolA (residues 58–421))
TolQ (natural protein, Escherichia coli (strain K12), TolQ of Escherichia coli strain K12; the operon encoding TolQRA was cloned into pTRC99a; no tag on TolQ in this construct; The whole tolQRA operon was cloned, so the whole gene is implied; a minor hexameric class (six TolQ subunits) was also seen; also called TolQ1; TolQ2; source: E. coli C43 (DE3), co-expressed from pTRC99a-TolQR(Strep)A(His), purified as complex (HisTrap + Superdex 200, …)) MTDMNILDLFLKASLLVKLIMLILIGFSIASWAIIIQRTRILNAAAREAEAFEDKFWSGIELSRLYQESQGKRDNLTGSEQIFYSGFKEFVRLHRANSHAPEAVVEGASRAMRISMNRELENLETHIPFLGTVGSISPYIGLFGTVWGIMHAFIALGAVKQATLQMVAPGIAEALIATAIGLFAAIPAVMAYNRLNQRVNKLELNYDNFMEEFTAILHRQAFTVSESNKG | 5 and 6 |  | 
TolR (residues 60–133) (domain or fragment, Escherichia coli K12, UniProt P0ABV6 60-133, looked up, TolR of Escherichia coli K12, residues 60-133 of the periplasmic domain, amplified from genomic DNA into a modified pET28a; also called TolR^60–133; TolR lacking both β1/α1 and β6; source: E. coli BL21(DE3), purified (Strep-Tactin column, desalting)) DNPPVIVEVSGIGQYTVVVEKDRLERLPPEQVVAEVSSRFKANPKTVFLIGGAKDVPYDEIIKALNLLHSAGVK |  | binds | binds
